# Measured values from patent publication US20210269549A1, “ANTI-SAS1B ANTIBODIES, ASSOCIATED METHODS OF USE, AND COMPOSITIONS AND METHODS FOR DETECTING AND TREATING CANCER” (UNIVERSITY OF VIRGINIA PATENT FOUNDATION, priority 2015, published 2021).
# Several values for one entry are separate records, joined by “and”; a condition that tells them apart may be missing. Equal values may be shown once. Entries after “also recorded” stand apart in the source; their conditions may differ.
# T1: SAS1B extracellular domain (aa 164-431) polypeptide (Homo sapiens, UniProt Q6HA08)
# T1 construct: SAS1B extracellular domain (aa 164-431) polypeptide; made in house
# T1 sequence (Q6HA08 164-431): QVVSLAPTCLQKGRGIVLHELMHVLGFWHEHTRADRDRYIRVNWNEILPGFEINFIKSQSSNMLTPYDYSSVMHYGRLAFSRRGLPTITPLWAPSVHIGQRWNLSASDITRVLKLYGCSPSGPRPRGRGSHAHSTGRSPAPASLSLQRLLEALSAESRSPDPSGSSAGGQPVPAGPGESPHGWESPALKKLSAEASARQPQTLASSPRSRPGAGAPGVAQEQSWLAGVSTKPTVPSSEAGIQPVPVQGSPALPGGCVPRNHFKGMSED
# T2: full-length SAS1B splice variant A polypeptide (Homo sapiens, UniProt Q6HA08)
# T2 construct: made in house
# T2 sequence (Q6HA08 24-431): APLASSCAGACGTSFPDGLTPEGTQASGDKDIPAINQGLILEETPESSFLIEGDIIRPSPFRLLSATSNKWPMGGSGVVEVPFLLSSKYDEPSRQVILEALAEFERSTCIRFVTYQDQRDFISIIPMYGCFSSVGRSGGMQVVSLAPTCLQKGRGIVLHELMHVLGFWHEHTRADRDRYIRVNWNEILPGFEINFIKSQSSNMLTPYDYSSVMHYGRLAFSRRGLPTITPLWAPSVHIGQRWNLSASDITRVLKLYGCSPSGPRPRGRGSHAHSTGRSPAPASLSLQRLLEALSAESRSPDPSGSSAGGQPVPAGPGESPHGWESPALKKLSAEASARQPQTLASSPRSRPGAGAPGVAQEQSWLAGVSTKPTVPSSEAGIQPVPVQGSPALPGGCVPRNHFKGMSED
# Assays:
# [1] = biological target: T1, SAS1B extracellular domain (aa 164-431) polypeptide; test: Western blot with mammalian cell-expressed recombinant SAS1B, extracellular domain; assay type: binding
# Protocol: (§1) SAS1B monoclonal antibodies were analyzed with mammalian cell-expressed recombinant SAS1B by western blotting.
# [2] = system: MMMT539 (uterine cancer cell line); test: Live cell surface indirect immunofluorescence, MMMT539; assay type: cell-based, human; details: live cells on ice
# Protocol: Anti-Human SAS1B mouse monoclonal antibodies reactive to SAS1B epitope on live cancer cell surfaces were identified by indirect immuno-fluorescence (IF) for the development of therapeutic antibodies. M1 (renal cancer cell line) and MMMT539 (uterine cancer cell line) cells were seeded at 20,000 cells in 1 ml per well on collagen coated coverslips in 24 well plates. The media was replaced 22 h post seeding. For antibody probing, cells were kept on ice for ˜8 to 18 min following 47 h post-seeding. The first antibody was added at 10 ug/ml, 20 ug/ml or 50 ug/ml in complete culture media with 15 mM NaN3 (pre-chilled), incubated on ice for 60 min, and the cells washed in complete culture media with 15 mM NaN3 in cold 1 ml, ×3. The second antibody, goat-antimouse-AF488 (pre-chilled), was added to the wells at 5 ug/ml in complete culture media with 15 mM NaN3 for 60 min on ice. The cells were washed in complete media with 15 mM NaN3, 1 ml, ×3 on ice. The cells were fixed in 4% PFA in PBS for 20 minutes on ice. The cells were washed in distilled water at RT, 1 ml, ×1 and mounted in 8 ul of SLOWFADE® Diamond Antifade Mountant with DAPI. An anti-EGFR monoclonal antibody was used as a positive control on live M1 cells. Epidermal growth factor receptor (EGFR) is a transmembrane glycoprotein and member of protein kinase superfamily. […] Most of the cells expressed the receptor and validated the live cell surface IF staining methodology for the screening of anti-human SAS1B mouse monoclonal antibodies. The receptor molecule was found on the cell surfaces. Anti-human CABYR monoclonal antibody 3A4 was used as a negative control on live MMMT539 cells. CABYR is a calcium binding cytoskeleton sperm protein with no transmembrane domain.
# [3] = system: M1 (renal cancer cell line); test: Live cell surface indirect immunofluorescence, M1; assay type: cell-based; details: live cells on ice; two cancer cell lines (M1, MMMT539)
# Protocol: Anti-Human SAS1B mouse monoclonal antibodies reactive to SAS1B epitope on live cancer cell surfaces were identified by indirect immuno-fluorescence (IF) for the development of therapeutic antibodies. M1 (renal cancer cell line) and MMMT539 (uterine cancer cell line) cells were seeded at 20,000 cells in 1 ml per well on collagen coated coverslips in 24 well plates. The media was replaced 22 h post seeding. For antibody probing, cells were kept on ice for ˜8 to 18 min following 47 h post-seeding. The first antibody was added at 10 ug/ml, 20 ug/ml or 50 ug/ml in complete culture media with 15 mM NaN3 (pre-chilled), incubated on ice for 60 min, and the cells washed in complete culture media with 15 mM NaN3 in cold 1 ml, ×3. The second antibody, goat-antimouse-AF488 (pre-chilled), was added to the wells at 5 ug/ml in complete culture media with 15 mM NaN3 for 60 min on ice. The cells were washed in complete media with 15 mM NaN3, 1 ml, ×3 on ice. The cells were fixed in 4% PFA in PBS for 20 minutes on ice. The cells were washed in distilled water at RT, 1 ml, ×1 and mounted in 8 ul of SLOWFADE® Diamond Antifade Mountant with DAPI. An anti-EGFR monoclonal antibody was used as a positive control on live M1 cells. Epidermal growth factor receptor (EGFR) is a transmembrane glycoprotein and member of protein kinase superfamily. […] Anti-human CABYR monoclonal antibody 3A4 was used as a negative control on live MMMT539 cells. CABYR is a calcium binding cytoskeleton sperm protein with no transmembrane domain.
# [4] = biological target: T2, full-length SAS1B splice variant A polypeptide; test: Western blot with mammalian cell-expressed recombinant SAS1B, full length; assay type: binding
# Protocol: as §1
# [5] = system: human uterine cancer cells; test: ADC assay on human uterine cancer cells using Fab-anti-mouse IgG Fc (Duocarmycin DM conjugated or unconjugated); assay type: cell-based; details: for Cytotoxic effect / Viability: 4 days; for Cell killing effects as antibody-duocarmycin conjugates on SAS1B+ human tumor cells (FIG. 28): uterine tumor cells in vitro; for Viability: 0.01 nM mAb
# Protocol: The cytotoxic effect of anti-human SAS1B monoclonal antibodies SB1, SB3 and SB4 on human uterine cancer cells was investigated by ADC assay using Fab-anti-mouse IgG Fc conjugated to Duocarmycin DM with a cleavable linker. An average of 3 experiments were done in triplicate. […] At 0.01 nM the viability was only 40% compared to ˜80% viability for SB4 mAb.
# The cytotoxic effect of anti-human SAS1B mAbs SB1, SB2, SB3, SB4 and SB5 on human uterine cancer cells by ADC assay using unconjugated Fab-anti-mouse IgG Fc was examined. An average of 1 or 2 experiments in triplicate were performed. […] See FIGS. 10A-B. The cytotoxic effect of anti-human SAS1B mAbs SB1, SB2, SB3, SB4, and SB5 was tested on human uterine cancer cells by ADC assay using Fab-anti-mouse IgG Fc conjugated to Duocarmycin DM with cleavable linker. An average of 3 experiments were completed in triplicate. […] At 0.01 nM the viability for SB3, SB2, SB4 and SB5 were 42%, 66%, 80% and 87% respectively.
# [6] = Fab-anti-mouse IgG Fc conjugated to Duocarmycin DM with cleavable linker
# [7] = isotype-specific unconjugated Fab
Reaction with SAS1B extracellular domain (aa 164-431) polypeptide [1],Molecule,Fluorescence signal on the surface of live uterine tumor cells [2],Surface labelling of live cancer cells [3],Reaction with full-length SAS1B splice variant A polypeptide [4],"Cytotoxic effect [5, 6]","Cytotoxic effect [5, 7]",Cell killing effects as antibody-duocarmycin conjugates on SAS1B+ human tumor cells (FIG. 28) [5],"Viability [5, 6]"
none of the them reacted,"SB2: mouse anti-human SAS1B monoclonal antibody, IgG2b; VH SEQ ID NO:14, VL SEQ ID NO:15 (antibody, listed as Mus musculus, V domains shown) VH: EVQLQQSGPELVKPGSSVKISCKASGYTFTDYNMVWVKQSHGKSLEWIGAVNPNNGGTSYNQKFKGKATLTVDKSSSTAYMELRSLTSEDSAVYYCVPNWDWFAYWGQGTLVTVSA VL: DVLMTQTPLSLPVSLGDQASISCRSSQSLVHSNGNTYLEWYLQKPGQSPNLLIYKVSNRFSGVPDRFSGSGSGTDFTLKISRVEAEDLGVYYCFQGSHVPFTFGSGTKLEIK",clear fluorescence signal,labelled the surface,reacted with the full-length SAS1B splice variant A polypeptide,strong cytotoxic effect at 0.1 nM and higher concentrations,no cytotoxic effect,sub-nanomolar concentrations,
none of the them reacted,"SB5: mouse anti-human SAS1B monoclonal antibody, IgG2b; VH SEQ ID NO:16, VL SEQ ID NO:18 (antibody, listed as Mus musculus, V domains shown) VH: EVQLQQSGPELVKPGSSVKISCKPSGYTFTDYNMVWMKQSHGKSLEWIGAINPNNGGTTYNQKFKGKATLTVDKSSSTAYMELRSLTSEDSAVYYCAPNWDWFAYWGQGTLVTVSA VL: DVLMTQIPLSLPVSLGDQASISCRSSQSILHSNGNTYLEWYLQKPGQSPKLLIYKVSNRFSGVPDRFSGSGSGTDFTLKISRVEAEDLGVYYCFQGSHVPFTFGSGTKLEIK",clear fluorescence signal,labelled the surface,reacted with the full-length SAS1B splice variant A polypeptide,strong cytotoxic effect at 0.1 nM and higher concentrations,no cytotoxic effect,sub-nanomolar concentrations,

# Continued, molecule first:
Molecule,Reaction with SAS1B extracellular domain (aa 164-431) polypeptide [1],Fluorescence signal on the surface of live uterine tumor cells [2],Surface labelling of live cancer cells [3],Reaction with full-length SAS1B splice variant A polypeptide [4],"Cytotoxic effect [5, 6]","Cytotoxic effect [5, 7]",Cell killing effects as antibody-duocarmycin conjugates on SAS1B+ human tumor cells (FIG. 28) [5],"Viability [5, 6]"
"SB1: mouse anti-SAS1B monoclonal antibody, IgG2a; VH SEQ ID NO:12, VL SEQ ID NO:13 (antibody, listed as Mus musculus, V domains shown) VH: EVQLQQSGPELVKPGSSVKISCKASGYTFTDYNMDWVKQSHGKSLEWIGAINPNNGGTSYNQKFKGKATLTVDKSSSTAYMELRSLTSEDSAVYYCATNEYWGQGTTLTVSS VL: NIVMTQSPKSMSMSVGERVTLSCKASENVGTYVSWYQQKPEQSPKLLIYGASNRYTGVPDRFTGSGSATDFTLTISSVQAEDLADYHCGQSYSYPWTFGGGTKLEIK",none of the them reacted,clear fluorescence signal,labelled the surface,reacted with the full-length SAS1B splice variant A polypeptide,no cytotoxic effect,no cytotoxic effect,no cytotoxic effects,
"SB4: mouse anti-human SAS1B monoclonal antibody, IgG2a; VH SEQ ID NO:16, VL SEQ ID NO:17 (antibody, listed as Mus musculus, V domains shown) VH: EVQLQQSGPELVKPGSSVKISCKPSGYTFTDYNMVWMKQSHGKSLEWIGAINPNNGGTTYNQKFKGKATLTVDKSSSTAYMELRSLTSEDSAVYYCAPNWDWFAYWGQGTLVTVSA VL: DVLMTQTPLSLPVSLGDQASISCRSSQSILHSNGNTYLEWYLQKPGQSPKLLIYKVSNRFSGVPDRFSGSGSGTDFTLKISRVEAEDLGVYYCFQGSHVPFTFGSGTKLEIK",none of the them reacted,clear fluorescence signal,labelled the surface,reacted with the full-length SAS1B splice variant A polypeptide,"cytotoxic effect at 0.01, 0.1 nM and higher concentrations; also recorded: strong cytotoxic effect at 0.1 nM and higher concentrations",no cytotoxic effect,sub-nanomolar concentrations,~80%
"SB3: mouse anti-human SAS1B monoclonal antibody, IgG2b; VH SEQ ID NO:14, VL SEQ ID NO:15 (antibody, listed as Mus musculus, V domains shown) VH: EVQLQQSGPELVKPGSSVKISCKASGYTFTDYNMVWVKQSHGKSLEWIGAVNPNNGGTSYNQKFKGKATLTVDKSSSTAYMELRSLTSEDSAVYYCVPNWDWFAYWGQGTLVTVSA VL: DVLMTQTPLSLPVSLGDQASISCRSSQSLVHSNGNTYLEWYLQKPGQSPNLLIYKVSNRFSGVPDRFSGSGSGTDFTLKISRVEAEDLGVYYCFQGSHVPFTFGSGTKLEIK",none of the them reacted,clear fluorescence signal,labelled the surface,reacted with the full-length SAS1B splice variant A polypeptide,strongest cytotoxic effect; also recorded: strong cytotoxic effect at 0.1 nM and higher concentrations,no cytotoxic effect,sub-nanomolar concentrations,40% and 42%
